{"source": "patent US20150086555A1", "details_in_all_cases": "remark: other sources report otherwise", "key": {"[1]": {"biological_target": "recombinant soluble homotrimeric HA, A/South Carolina/1/18 H1N1 (Influenza A virus A/South Carolina/1/18 (H1N1))", "experiment": "microarray, transfection SN IgG, trimeric HA"}, "[2]": {"biological_target": "recombinant soluble homotrimeric HA, A/Solomon Islands/3/06 H1N1 (Influenza A virus A/Solomon Islands/3/2006(H1N1))", "experiment": "microarray, transfection SN IgG, trimeric HA"}, "[3]": {"biological_target": "recombinant soluble homotrimeric HA, A/California/4/09 H1N1 (Influenza A virus A/California/04/2009(H1N1))", "experiment": "microarray, transfection SN IgG, trimeric HA"}, "[4]": {"biological_target": "recombinant soluble homotrimeric HA, A/Japan/305/57 H2N2 (Influenza A virus A/Japan/305/1957(H2N2))", "experiment": "microarray, transfection SN IgG, trimeric HA"}, "[5]": {"biological_target": "recombinant soluble homotrimeric HA, A/Hong Kong/156/97 H5N1 (Influenza A virus A/Hong Kong/156/97 (H5N1))", "experiment": "microarray, transfection SN IgG, trimeric HA"}, "[6]": {"biological_target": "recombinant soluble homotrimeric HA, A/Anhui/1/05 H5N1 (Influenza A virus A/Anhui/1/2005(H5N1))", "experiment": "microarray, transfection SN IgG, trimeric HA"}, "[7]": {"biological_target": "recombinant soluble homotrimeric HA, A/Vietnam/1203/04 H5N1 (Influenza A virus A/VietNam/1203/2004(H5N1))", "experiment": "microarray, transfection SN IgG, trimeric HA"}, "[8]": {"biological_target": "hemagglutinin (HA) of influenza A/Japan/305/57 (H2N2) on whole virions (Influenza A virus A/Japan/305/1957(H2N2)), P03451", "experiment": "ELISA; BCC supernatant on coated inactivated whole virions"}, "[9]": {"biological_target": "recombinant homotrimeric HA A/Netherlands/219/03 H7N7 (Influenza A virus A/Netherlands/219/03(H7N7))", "experiment": "protein microarray, purified IgG, trimeric HA"}, "[10]": {"biological_target": "recombinant homotrimeric HA A/South Carolina/1/18 H1N1 (Influenza A virus A/South Carolina/1/18 (H1N1))", "experiment": "protein microarray, purified IgG, trimeric HA"}, "[11]": {"biological_target": "recombinant homotrimeric HA A/Hong Kong/156/97 H5N1 (Influenza A virus A/Hong Kong/156/97 (H5N1))", "experiment": "protein microarray, purified IgG, trimeric HA"}, "[12]": {"biological_target": "recombinant homotrimeric HA A/Anhui/1/05 H5N1 (Influenza A virus A/Anhui/1/2005(H5N1))", "experiment": "protein microarray, purified IgG, trimeric HA"}, "[13]": {"biological_target": "recombinant homotrimeric HA A/California/4/09 H1N1 (Influenza A virus A/California/04/2009(H1N1))", "experiment": "protein microarray, purified IgG, trimeric HA"}, "[14]": {"biological_target": "recombinant homotrimeric HA A/Indonesia/5/05 H5N1 (Influenza A virus A/Indonesia/5/2005(H5N1))", "experiment": "protein microarray, purified IgG, trimeric HA"}, "[15]": {"biological_target": "recombinant homotrimeric HA A/Vietnam/1203/04 H5N1 (Influenza A virus A/VietNam/1203/2004(H5N1))", "experiment": "protein microarray, purified IgG, trimeric HA"}, "[16]": {"biological_target": "recombinant homotrimeric HA A/Egypt/3300-NAMRU3/08 H5N1 (Influenza A virus A/Egypt/3300-NAMRU3/2008(H5N1))", "experiment": "protein microarray, purified IgG, trimeric HA"}, "[17]": {"biological_target": "recombinant homotrimeric HA A/Solomon Islands/3/06 H1N1 (Influenza A virus A/Solomon Islands/3/2006(H1N1))", "experiment": "protein microarray, purified IgG, trimeric HA"}, "[18]": {"biological_target": "recombinant homotrimeric HA A/Japan/305/57 H2N2 (Influenza A virus A/Japan/305/1957(H2N2))", "experiment": "protein microarray, purified IgG, trimeric HA"}, "[19]": {"biological_target": "recombinant soluble homotrimeric HA of A/Wisconsin/67/05 (H3N2) (Influenza A virus A/Wisconsin/67/2005(H3N2))", "experiment": "HA microarray, BCC supernatant"}, "[20]": {"biological_target": "recombinant soluble homotrimeric HA of A/duck/Yangzhou/02/05 (H8N4) (Influenza A virus A/duck/Yangzhou/02/2005(H8N4))", "experiment": "HA microarray, BCC supernatant"}, "[21]": {"biological_target": "recombinant soluble homotrimeric HA of A/Vietnam/1203/04 (H5N1) (Influenza A virus A/VietNam/1203/2004(H5N1))", "experiment": "HA microarray, BCC supernatant"}, "[22]": {"biological_target": "recombinant soluble homotrimeric HA of A/Japan/305/57 (H2N2) (Influenza A virus A/Japan/305/1957(H2N2))", "experiment": "HA microarray, BCC supernatant"}, "[23]": {"biological_target": "recombinant soluble homotrimeric HA of A/Anhui/1/05 (H5N1) (Influenza A virus A/Anhui/1/2005(H5N1))", "experiment": "HA microarray, BCC supernatant"}, "[24]": {"biological_target": "recombinant soluble homotrimeric HA of A/Hong Kong/2108/03 (H9N2) (Influenza A virus A/HK/2108/2003(H9N2))", "experiment": "HA microarray, BCC supernatant"}, "[25]": {"biological_target": "recombinant soluble homotrimeric HA of A/Netherlands/219/03 (H7N7) (Influenza A virus A/Netherlands/219/03(H7N7))", "experiment": "HA microarray, BCC supernatant"}, "[26]": {"biological_target": "recombinant soluble homotrimeric HA of A/Indonesia/5/05 (H5N1) (Influenza A virus A/Indonesia/5/2005(H5N1))", "experiment": "HA microarray, BCC supernatant"}, "[27]": {"biological_target": "recombinant soluble homotrimeric HA of A/Egypt/3300-NAMRU3/08 (H5N1) (Influenza A virus A/Egypt/3300-NAMRU3/2008(H5N1))", "experiment": "HA microarray, BCC supernatant"}, "[28]": {"biological_target": "recombinant soluble homotrimeric HA of A/Solomon Islands/3/06 (H1N1) (Influenza A virus A/Solomon Islands/3/2006(H1N1))", "experiment": "HA microarray, BCC supernatant"}, "[29]": {"biological_target": "recombinant soluble homotrimeric HA of A/California/4/09 (H1N1) (Influenza A virus A/California/04/2009(H1N1))", "experiment": "HA microarray, BCC supernatant"}}, "data": [{"binder": "TCN-551 (5243_D01) (antibody, V domains shown) VH: EVQLVQSGSEVKKPGESLKISCKGSGYSFSNYWIGWVRHMPGKGLEWMGIIYPGDSDTRYSPSFQGQVTMSADKSSSTVYLQWSSLKASDTAIYYCARRGGHSFGYGSGGDTHSEFDSWGQGTLVTVSS VL: QSVLTQSPSVSAAPGQKVTISCSGSDSNIGDYFVCWYQHLPGKPPQLLIYENNKRPSGIPDRFSGSKSGTSATLGITGIQTGDEADYYCATWDGSLSAWVFGGGTKLTVL", "values": [{"measurement": "Trimeric HA Binding: RLU", "setting": "[1]", "value": 4340, "unit": "RLU"}, {"measurement": "Trimeric HA Binding: RLU", "setting": "[2]", "value": 43500, "unit": "RLU"}, {"measurement": "Trimeric HA Binding: RLU", "setting": "[3]", "value": 46100, "unit": "RLU"}, {"measurement": "Trimeric HA Binding: RLU", "setting": "[4]", "value": 25200, "unit": "RLU"}, {"measurement": "Trimeric HA Binding: RLU", "setting": "[5]", "value": 792, "unit": "RLU"}, {"measurement": "Trimeric HA Binding: RLU", "setting": "[6]", "value": 2640, "unit": "RLU"}, {"measurement": "Trimeric HA Binding: RLU", "setting": "[7]", "value": 41900, "unit": "RLU"}, {"measurement": "ELISA virus binding (OD450)", "setting": "[8]", "value": 0.19, "unit": "OD450"}, {"measurement": "Trimeric HA Binding: RLU", "setting": "[9]", "value": 1670, "unit": "RLU"}, {"measurement": "Trimeric HA Binding: RLU", "setting": "[10]", "value": 10300, "unit": "RLU"}, {"measurement": "Trimeric HA Binding: RLU", "setting": "[11]", "value": 824, "unit": "RLU"}, {"measurement": "Trimeric HA Binding: RLU", "setting": "[12]", "value": 6640, "unit": "RLU"}, {"measurement": "Trimeric HA Binding: RLU", "setting": "[13]", "value": 19400, "unit": "RLU"}, {"measurement": "Trimeric HA Binding: RLU", "setting": "[14]", "value": 296, "unit": "RLU"}, {"measurement": "Trimeric HA Binding: RLU", "setting": "[15]", "value": 2950, "unit": "RLU"}, {"measurement": "Trimeric HA Binding: RLU", "setting": "[16]", "value": 907, "unit": "RLU"}, {"measurement": "Trimeric HA Binding: RLU", "setting": "[17]", "value": 25000, "unit": "RLU"}, {"measurement": "Trimeric HA Binding: RLU", "setting": "[18]", "value": 1600, "unit": "RLU"}, {"measurement": "Trimeric HA Binding: RLU", "setting": "[19]", "value": 6840, "unit": "RLU"}, {"measurement": "Trimeric HA Binding: RLU", "setting": "[20]", "value": 9820, "unit": "RLU"}, {"measurement": "Trimeric HA Binding: RLU", "setting": "[21]", "value": 4150, "unit": "RLU"}, {"measurement": "Trimeric HA Binding: RLU", "setting": "[22]", "value": 22600, "unit": "RLU"}, {"measurement": "Trimeric HA Binding: RLU", "setting": "[23]", "value": 4190, "unit": "RLU"}, {"measurement": "Trimeric HA Binding: RLU", "setting": "[24]", "value": 224, "unit": "RLU"}, {"measurement": "Trimeric HA Binding: RLU", "setting": "[25]", "value": 786, "unit": "RLU"}, {"measurement": "Trimeric HA Binding: RLU", "setting": "[26]", "value": 53500, "unit": "RLU"}, {"measurement": "Trimeric HA Binding: RLU", "setting": "[27]", "value": 47200, "unit": "RLU"}, {"measurement": "Trimeric HA Binding: RLU", "setting": "[28]", "value": 53800, "unit": "RLU"}, {"measurement": "Trimeric HA Binding: RLU", "setting": "[29]", "value": 53400, "unit": "RLU"}]}]}
